Results as given in paper PMC7505474 (2020).

Target: Recombinant TLR4 protein (R&D Systems 478-TR-050) (UniProt O00206 24-631)
Experiment: SPR

Recombinant TLR4 protein (R&D Systems 478-TR-050), sequence (O00206 24-631): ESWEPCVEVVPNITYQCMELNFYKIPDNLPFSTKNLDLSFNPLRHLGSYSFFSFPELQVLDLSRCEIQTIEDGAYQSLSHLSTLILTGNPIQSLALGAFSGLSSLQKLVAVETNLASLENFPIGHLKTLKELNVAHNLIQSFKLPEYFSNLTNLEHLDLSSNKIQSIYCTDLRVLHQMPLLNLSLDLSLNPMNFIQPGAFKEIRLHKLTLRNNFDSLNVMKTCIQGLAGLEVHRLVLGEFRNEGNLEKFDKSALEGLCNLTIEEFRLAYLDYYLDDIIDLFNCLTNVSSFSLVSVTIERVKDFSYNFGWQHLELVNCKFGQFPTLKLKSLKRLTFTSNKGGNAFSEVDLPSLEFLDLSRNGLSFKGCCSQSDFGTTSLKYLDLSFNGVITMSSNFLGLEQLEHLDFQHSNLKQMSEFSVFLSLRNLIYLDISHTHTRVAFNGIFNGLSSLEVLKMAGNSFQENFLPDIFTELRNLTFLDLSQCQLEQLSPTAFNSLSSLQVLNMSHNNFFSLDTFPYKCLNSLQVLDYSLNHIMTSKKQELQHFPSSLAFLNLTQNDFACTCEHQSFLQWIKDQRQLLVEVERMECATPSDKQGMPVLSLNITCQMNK

B1: human recombinant IFI16 protein (natural protein)
chain: MGKKYKNIVLLKGLEVINDYHFRMVKSLLSNDLKLNLKMREEYDKIQIADLMEEKFRGDAGLGKLIKIFEDIPTLEDLAETLKKEKLKVKGPALSRKRKKEVDATSPAPSTSSTVKTEGAEATPGAQKRKKSTKEKAGPKGSKVSEEQTQPPSPAGAGMSTAMGRSPSPKTSLSAPPNSSSTENPKTVAKCQVTPRRNVLQKRPVIVKVLSTTKPFEYETPEMEKKIMFHATVATQTQFFHVKVLNTSLKEKFNGKKIIIISDYLEYDSLLEVNEESTVSEAGPNQTFEVPNKIINRAKETLKIDILHKQASGNIVYGVFMLHKKTVNQKTTIYEIQDDRGKMDVVGTGQCHNIPCEEGDKLQLFCFRLRKKNQMSKLISEMHSFIQIKKKTNPRNNDPKSMKLPQEQRQLPYPSEASTTFPESHLRTPQMPPTTPSSSFFTKKSEDTISKMNDFMRMQILKEGSHFPGPFMTSIGPAESHPHTPQMPPSTPSSSFLTTLKPRLKTEPEEVSIEDSAQSDLKEVMVLNATESFVYEPKEQKKMFHATVATENEVFRVKVFNIDLKEKFTPKKIIAIANYVCRNGFLEVYPFTLVADVNADRNMEIPKGLIRSASVTPKINQLCSQTKGSFVNGVFEVHKKNVRGEFTYYEIQDNTGKMEVVVHGRLTTINCEEGDKLKLTCFELAPKSGNTGELRSVIHSHIKVIKTRKNKKDILNPDSSMETSPDFFF
Question: For B1, which koff is on record?
Answer: The koff was 0.00576 s⁻¹.
